Laboratory results reported in PMC3299731 (PLoS ONE, 2012).

Key:
translin [1] = target: T1, translin (human, UniProt Q15631 1-228); experiment: UV-laser crosslinking (248 nm); 50 pmol each in 50 uL; 25 mM Tris-HCl pH 8.0, 100 mM NaCl, 1 mM EDTA, 30 min; temperature not stated; 4.5% native PAGE in 0.5x TBE; settings: protein: recombinant; tags: N-terminal 6xHis; chain copies: 8; label: 5'-32P (unlabeled in agarose EMSA)
translin [2] = target: T1, translin; experiment: EMSA; 50 nM octamer, 100 nM DNA; 25 mM Tris-HCl pH 8.0, 100 mM NaCl, 1 mM EDTA, 30 min; temperature not stated; 4.5% native PAGE in 0.5x TBE; settings: protein: recombinant; tags: N-terminal 6xHis; chain copies: 8; label: 5'-32P (unlabeled in agarose EMSA)
[3] = target: the molecule itself; experiment: SEC; purified homomeric 6×His-translin proteins on Superdex 200 10/300 GL calibrated with molecular weight markers (29-440 kDa); octamer

## GCCCTCCTGCCCTCCTTCCGCGGG (ssDNA) [Bcl-CL1 24-mer]
Translin [1]
  binding result: binds
Translin [2]
  binding result: binds

B1: Mutant of basic-2 motif of human translin, homomeric, N-terminal 6×His tag (natural protein, UniProt Q15631 1-228, looked up)
chain: MSVSEIFVELQGFLAAEQDIREEIRKVVQSLEQTAREILTLLQGVHQGAGFQDIPKRCLKAREHFGTVKTHLTSLKTKFPAEQYYTFNENWRFVLQRLVFLAAFVVYLETETLVTREAVTEILGIEPDREKGFHLDVEDYLSGVLILASELSRLSVNSVTAGDYSRPLHISTFINELDSGFRLLNLKNDSLRKRYDGLKYDVKKVEEVVYDLSIRGFNKETAAACVEK
notes: human translin with the B2 motif mutated, expressed from pQE9-translinB2; also called translinB2; translinB2 mutant; source: E. coli BL21(DE3), pQE9-translinB2, purified (Ni-IDA, Q-sepharose, Superdex 200); not shown: 6×His, N-terminal, kept
[3]
  stoichiometry N: 8

B2: Mutant of basic-3 motif of human translin, homomeric, N-terminal 6×His tag (natural protein, UniProt Q15631 1-228, looked up)
chain: MSVSEIFVELQGFLAAEQDIREEIRKVVQSLEQTAREILTLLQGVHQGAGFQDIPKRCLKAREHFGTVKTHLTSLKTKFPAEQYYRFHEHWRFVLQRLVFLAAFVVYLETETLVTREAVTEILGIEPDREKGFHLDVEDYLSGVLILASELSRLSVNSVTAGDYSRPLHISTFINELDSGFRLLNLKNDSLTNSNDGLKYDVKKVEEVVYDLSIRGFNKETAAACVEK
notes: human translin with the B3 motif mutated, expressed from pQE9-translinB3; also called translinB3; translinB3 mutant; source: E. coli BL21(DE3), pQE9-translinB3, purified (Ni-IDA, Q-sepharose, Superdex 200); not shown: 6×His, N-terminal, kept
[3]
  stoichiometry N: 8
